Among the data in patent US10676749 are activity (fold activation) values, retold here.

Bounds are passed on as bounds.

Assay in all cases: cell_activity
What all share (conditions): VEGF-A ELISA, 293 cells

The test system of series [1] is TALE-VP64 VEGF2-3 (synthetic).
Series [2] relates to TALE-VP64 VEGF2-2 (synthetic).
The subject of series [3] is TALE-VP64 VEGF2-4 (synthetic).
The test system of series [4] is TALE-VP64 VEGF2-1 (synthetic).

Regarding “TCCCGCAGCTGACCAGTCGC (double strand) [VEGF2-3 site]”, the activity (fold activation) in series [1] was above 5.3.

In the case of “TCCCGCAGCTGACCAGTC (double strand) [VEGF2-2 site]”, the activity (fold activation) in series [2] is above 5.3.

Regarding “TCCCGCAGCTGACCAGTCGCGC (double strand) [VEGF2-4 site]”, the activity (fold activation) in series [3] is above 5.3.

The sequence “TCCCGCAGCTGACCAG (double strand) [VEGF2-1 site]” had an activity (fold activation) in series [4] above 5.3.
